Experimental data from paper PMC7949130.
Values belong to the binder of their own block, whether it stands above or below them.

Assays:
[1] = target: native sulfated human cationic trypsin purified from pancreatic juice (human); test: dissociation rate assay (recovery of trypsin activity after dilution of the complex); complex of 11 nM SPINK1 and 10 nM trypsin formed for 1 h at 23 °C, diluted to 50-200 pM with 0.6 mM Z-Gly-Pro-Arg-AMC, 0.1 M Tris-HCl (pH 8.0), 150 mM NaCl, 1 mM CaCl2, 0.05% Tween 20, room temperature, followed for 1 h
[2] = target: nonsulfated human cationic trypsin purified from E. coli (human); test: as above
[3] = target: native sulfated human cationic trypsin purified from pancreatic juice (human); test: discontinuous association rate assay (residual trypsin activity); 50 pM trypsin mixed with 500 pM SPINK1, 0.1 M Tris-HCl (pH 8.0), 150 mM NaCl, 1 mM CaCl2, 0.05% Tween 20, 23 °C; kon from the pseudo-first-order rate constant divided by the inhibitor concentration
[4] = target: nonsulfated human cationic trypsin purified from E. coli (human); test: as above
[5] = target: native sulfated human cationic trypsin purified from pancreatic juice (human); test: equilibrium binding assay (free trypsin activity on a fluorogenic substrate); fixed trypsin incubated with increasing SPINK1, 0.2 ml, 0.1 M Tris-HCl (pH 8.0), 150 mM NaCl, 1 mM CaCl2, 0.05% Tween 20, 15 h; free trypsin measured with Z-Gly-Pro-Arg-AMC; apparent KD, global fit of at least three experiments
[6] = target: native sulfated human cationic trypsin purified from pancreatic juice (human); test: as above; remark: listed apart in the source
[7] = target: sulfated human cationic trypsin purified from the conditioned medium of transfected HEK 293T cells (human); test: as above
[8] = target: nonsulfated human cationic trypsin purified from the conditioned medium of transfected HEK 293T cells (human); test: as above
[9] = target: nonsulfated human cationic trypsin purified from E. coli (human); test: as above
[10] = target: native sulfated human cationic trypsin purified from pancreatic juice (human); test: KD calculated from the rate constants (association and dissociation rate assays); KD(calc): equilibrium dissociation constant calculated from kon and koff of the activity-based rate assays
[11] = target: nonsulfated human cationic trypsin purified from E. coli (human); test: as above
[12] = target: nonsulfated human cationic trypsin purified from E. coli (human); test: equilibrium binding assay (free trypsin activity on a fluorogenic substrate); fixed trypsin incubated with increasing SPINK1, 0.2 ml, 0.1 M Tris-HCl (pH 8.0), 150 mM NaCl, 1 mM CaCl2, 0.05% Tween 20, 15 h; free trypsin measured with Z-Gly-Pro-Arg-AMC; apparent KD, global fit of at least three experiments; remark: listed apart in the source
[13] = target: native sulfated human cationic trypsin purified from pancreatic juice (human); test: equilibrium binding assay (free trypsin activity on a fluorogenic substrate); as the equilibrium assay but K41N SPINK1 incubated with trypsin for 1 h; 0.1 M Tris-HCl (pH 8.0), 150 mM NaCl, 1 mM CaCl2, 0.05% Tween 20; apparent KD

koff [1]: 5.48e-05 s⁻¹
koff [2]: 8.2e-06 s⁻¹
kon [3]: 3.5e+06 M⁻¹ s⁻¹
kon [4]: 3e+06 M⁻¹ s⁻¹
Kd [5]: 0.0674 nM
Kd [6]: 0.0622 nM
Kd [7]: 0.0402 nM
Kd [8]: 0.0044 nM
Kd [9]: 0.0011 nM
Kd [10]: 0.0158 nM
Kd [11]: 0.0027 nM
B1: serine protease inhibitor Kazal type 1 (SPINK1), wildtype, C-terminal 10His tag (natural protein)
chain: DSLGREAKCYNELNGCTKIYDPVCGTDGNTYPNECVLCFENRKRQTSILIQKSGPC

Kd [5]: 0.0271 nM
Kd [12]: 0.104 nM
B2: SPINK1 mutant Y43R (natural protein)
chain: DSLGREAKCYNELNGCTKIRDPVCGTDGNTYPNECVLCFENRKRQTSILIQKSGPC

Kd [13]: 1290 nM
B3: SPINK1 variant K41N, C-terminal 10His tag (natural protein)
chain: DSLGREAKCYNELNGCTNIYDPVCGTDGNTYPNECVLCFENRKRQTSILIQKSGPC

koff [1]: 4.5e-05 s⁻¹
koff [2]: 7e-06 s⁻¹
kon [3]: 2.7e+06 M⁻¹ s⁻¹
kon [4]: 5.3e+06 M⁻¹ s⁻¹
Kd [6]: 0.0323 nM
Kd [7]: 0.0375 nM
Kd [8]: 0.0047 nM
Kd [9]: 0.0015 nM
Kd [10]: 0.0164 nM
Kd [11]: 0.0013 nM
B4: SPINK1 variant N34S, C-terminal 10His tag (natural protein)
chain: DSLGREAKCYSELNGCTKIYDPVCGTDGNTYPNECVLCFENRKRQTSILIQKSGPC

Kd [6]: 0.2 nM
B5: SPINK1 variant I42M, C-terminal 10His tag (natural protein)
chain: DSLGREAKCYNELNGCTKMYDPVCGTDGNTYPNECVLCFENRKRQTSILIQKSGPC

Kd [6]: 0.0869 nM
B6: SPINK1 variant N37S, C-terminal 10His tag (natural protein)
chain: DSLGREAKCYNELSGCTKIYDPVCGTDGNTYPNECVLCFENRKRQTSILIQKSGPC

Kd [6]: 0.0592 nM
B7: SPINK1 variant R65Q, C-terminal 10His tag (natural protein)
chain: DSLGREAKCYNELNGCTKIYDPVCGTDGNTYPNECVLCFENQKRQTSILIQKSGPC

Kd [5]: 0.0622 nM
Kd [12]: 0.0203 nM
B8: SPINK1 mutant Y43A (natural protein)
chain: DSLGREAKCYNELNGCTKIADPVCGTDGNTYPNECVLCFENRKRQTSILIQKSGPC

Kd [6]: 0.101 nM
B9: SPINK1 variant P55S, C-terminal 10His tag (natural protein)
chain: DSLGREAKCYNELNGCTKIYDPVCGTDGNTYSNECVLCFENRKRQTSILIQKSGPC

Kd [6]: 0.068 nM
B10: SPINK1 variant Q68R, C-terminal 10His tag (natural protein)
chain: DSLGREAKCYNELNGCTKIYDPVCGTDGNTYPNECVLCFENRKRRTSILIQKSGPC
